# In IntAct's records for PubMed 10531343:
# B1: Synaptotagmin-3 (Mus musculus), O35681 (parent)
# chain: MSGDYEDDLCRRALILVSDLCARVRDADTNDRCQEFNELRIRGYPRGPDADISVSLLSVIVTFCGIVLLGVSLFVSWKLCWVPWRDKGGSAVGGGPLRKDLAPGVGLAGLVGGGGHHLGASLGGHPLLGGPHHHGHTAHHPPFAELLEPGGLGGSEPPEPSYLDMDSYPEAAVASVVAAGVKPSQTSPELPSEGGTGSGLLLLPPSGGGLPSAQSHQQVTSLAPTTRYPALPRPLTQQTLTTQADPSTEERPPALPLPLPGGEEKAKLIGQIKPELYQGTGPGGRRGGGSGEAGAPCGRISFALRYLYGSDHLVVRILQALDLPAKDSNGFSDPYVKIYLLPDRKKKFQTKVHRKTLNPIFNETFQFSVPLAELAQRKLHFSVYDFDRFSRHDLIGQVVLDNLLELAEQPPDRPLWRDILEGGSEKADLGELNFSLCYLPTAGRLTVTIIKASNLKAMDLTGFSDPYVKASLISEGRRLKKRKTSIKKNTLNPTYNEALVFDVAPESVENVGLSIAVVDYDCIGHNEVIGVCRVGPEAADPHGREHWAEMLANPRKPVEHWHQLVEEKTLSSFTKGGKGLSEKENSE
# partner: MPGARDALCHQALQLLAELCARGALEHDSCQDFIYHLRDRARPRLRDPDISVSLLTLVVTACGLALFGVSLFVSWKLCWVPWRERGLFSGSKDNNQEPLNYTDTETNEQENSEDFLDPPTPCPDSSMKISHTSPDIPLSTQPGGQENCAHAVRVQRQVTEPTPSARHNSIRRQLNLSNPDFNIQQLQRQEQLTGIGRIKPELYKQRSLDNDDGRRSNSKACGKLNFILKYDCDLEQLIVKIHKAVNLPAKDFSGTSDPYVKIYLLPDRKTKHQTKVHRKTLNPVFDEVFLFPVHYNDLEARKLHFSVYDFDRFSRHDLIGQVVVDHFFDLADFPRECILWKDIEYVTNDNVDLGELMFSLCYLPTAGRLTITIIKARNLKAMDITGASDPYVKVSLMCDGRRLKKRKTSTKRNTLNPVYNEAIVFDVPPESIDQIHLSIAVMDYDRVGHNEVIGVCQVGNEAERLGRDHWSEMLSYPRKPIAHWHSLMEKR
# B2: Synaptotagmin-9 (Mus musculus), Q9R0N9 (parent)
# chain: B1 partner
# partner: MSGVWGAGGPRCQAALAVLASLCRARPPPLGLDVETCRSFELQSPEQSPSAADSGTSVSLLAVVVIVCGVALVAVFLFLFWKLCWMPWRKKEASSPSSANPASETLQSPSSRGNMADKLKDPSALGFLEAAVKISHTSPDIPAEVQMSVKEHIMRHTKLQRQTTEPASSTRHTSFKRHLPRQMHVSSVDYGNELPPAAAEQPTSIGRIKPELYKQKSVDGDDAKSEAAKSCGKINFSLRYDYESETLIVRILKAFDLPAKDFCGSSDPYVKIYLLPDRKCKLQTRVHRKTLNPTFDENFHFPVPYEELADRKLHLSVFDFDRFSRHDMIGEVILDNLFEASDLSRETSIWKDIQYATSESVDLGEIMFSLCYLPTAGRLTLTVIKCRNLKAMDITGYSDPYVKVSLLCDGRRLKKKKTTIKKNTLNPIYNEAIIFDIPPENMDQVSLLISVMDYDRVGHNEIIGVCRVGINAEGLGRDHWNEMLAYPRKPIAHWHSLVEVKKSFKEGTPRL
# B3: Synaptotagmin-3 (Mus musculus), O35681 (parent)
# chain: B1 chain
# partner: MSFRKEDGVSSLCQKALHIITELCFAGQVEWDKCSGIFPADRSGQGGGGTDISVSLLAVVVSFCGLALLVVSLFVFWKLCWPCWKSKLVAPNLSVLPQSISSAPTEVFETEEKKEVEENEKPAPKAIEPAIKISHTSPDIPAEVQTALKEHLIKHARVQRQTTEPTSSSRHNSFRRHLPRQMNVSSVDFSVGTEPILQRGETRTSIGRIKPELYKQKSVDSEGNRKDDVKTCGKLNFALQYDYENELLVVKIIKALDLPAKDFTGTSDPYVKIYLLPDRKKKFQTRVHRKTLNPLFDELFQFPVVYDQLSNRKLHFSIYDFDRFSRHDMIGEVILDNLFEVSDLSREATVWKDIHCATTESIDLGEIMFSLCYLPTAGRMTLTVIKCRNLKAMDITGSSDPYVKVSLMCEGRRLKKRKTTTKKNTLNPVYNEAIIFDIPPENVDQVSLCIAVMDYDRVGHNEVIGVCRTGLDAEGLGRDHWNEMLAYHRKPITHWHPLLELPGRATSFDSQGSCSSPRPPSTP
# B4: Synaptotagmin-10 (Mus musculus), Q9R0N4 (parent)
# chain: B3 partner
# partner: B1 partner
# B5: Synaptotagmin-6 (Mus musculus), Q9R0N8 (parent)
# chain: B2 partner
# partner: B3 partner
# B6: Synaptotagmin-10 (Mus musculus), Q9R0N4 (parent)
# chain: B3 partner
# partner: B2 partner
# Variants of: B1
# Conditions: with syt9_mouse Syt9, Q9R0N9
row,effect of a mutation on the interaction,Variant
1,decreasing interaction,MSGDYEDDLARRALILVSDLCARVRDADTNDRCQEFNELRIRGYPRGPDADISVSLLSVIVTFCGIVLLGVSLFVSWKLCWVPWRDKGGSAVGGGPLRKDLAPGVGLAGLVGGGGHHLGASLGGHPLLGGPHHHGHTAHHPPFAELLEPGGLGGSEPPEPSYLDMDSYPEAAVASVVAAGVKPSQTSPELPSEGGTGSGLLLLPPSGGGLPSAQSHQQVTSLAPTTRYPALPRPLTQQTLTTQADPSTEERPPALPLPLPGGEEKAKLIGQIKPELYQGTGPGGRRGGGSGEAGAPCGRISFALRYLYGSDHLVVRILQALDLPAKDSNGFSDPYVKIYLLPDRKKKFQTKVHRKTLNPIFNETFQFSVPLAELAQRKLHFSVYDFDRFSRHDLIGQVVLDNLLELAEQPPDRPLWRDILEGGSEKADLGELNFSLCYLPTAGRLTVTIIKASNLKAMDLTGFSDPYVKASLISEGRRLKKRKTSIKKNTLNPTYNEALVFDVAPESVENVGLSIAVVDYDCIGHNEVIGVCRVGPEAADPHGREHWAEMLANPRKPVEHWHQLVEEKTLSSFTKGGKGLSEKENSE [C10A]

# Variants of: B2
# Conditions: with syt6_mouse Syt6, Q9R0N8
row,effect of a mutation on the interaction,Variant
1,decreasing interaction,MPGARDALAHQALQLLAELCARGALEHDSCQDFIYHLRDRARPRLRDPDISVSLLTLVVTACGLALFGVSLFVSWKLCWVPWRERGLFSGSKDNNQEPLNYTDTETNEQENSEDFLDPPTPCPDSSMKISHTSPDIPLSTQPGGQENCAHAVRVQRQVTEPTPSARHNSIRRQLNLSNPDFNIQQLQRQEQLTGIGRIKPELYKQRSLDNDDGRRSNSKACGKLNFILKYDCDLEQLIVKIHKAVNLPAKDFSGTSDPYVKIYLLPDRKTKHQTKVHRKTLNPVFDEVFLFPVHYNDLEARKLHFSVYDFDRFSRHDLIGQVVVDHFFDLADFPRECILWKDIEYVTNDNVDLGELMFSLCYLPTAGRLTITIIKARNLKAMDITGASDPYVKVSLMCDGRRLKKRKTSTKRNTLNPVYNEAIVFDVPPESIDQIHLSIAVMDYDRVGHNEVIGVCQVGNEAERLGRDHWSEMLSYPRKPIAHWHSLMEKR [C9A]

# Variants of: B3
# Conditions: with syt10_mouse Syt10, Q9R0N4
row,effect of a mutation on the interaction,Variant
1,decreasing interaction,MSGDYEDDLARRALILVSDLCARVRDADTNDRCQEFNELRIRGYPRGPDADISVSLLSVIVTFCGIVLLGVSLFVSWKLCWVPWRDKGGSAVGGGPLRKDLAPGVGLAGLVGGGGHHLGASLGGHPLLGGPHHHGHTAHHPPFAELLEPGGLGGSEPPEPSYLDMDSYPEAAVASVVAAGVKPSQTSPELPSEGGTGSGLLLLPPSGGGLPSAQSHQQVTSLAPTTRYPALPRPLTQQTLTTQADPSTEERPPALPLPLPGGEEKAKLIGQIKPELYQGTGPGGRRGGGSGEAGAPCGRISFALRYLYGSDHLVVRILQALDLPAKDSNGFSDPYVKIYLLPDRKKKFQTKVHRKTLNPIFNETFQFSVPLAELAQRKLHFSVYDFDRFSRHDLIGQVVLDNLLELAEQPPDRPLWRDILEGGSEKADLGELNFSLCYLPTAGRLTVTIIKASNLKAMDLTGFSDPYVKASLISEGRRLKKRKTSIKKNTLNPTYNEALVFDVAPESVENVGLSIAVVDYDCIGHNEVIGVCRVGPEAADPHGREHWAEMLANPRKPVEHWHQLVEEKTLSSFTKGGKGLSEKENSE [C10A]

# Variants of: B4
# Conditions: with syt9_mouse Syt9, Q9R0N9
row,effect of a mutation on the interaction,Variant
1,decreasing interaction,MSFRKEDGVSSLAQKALHIITELCFAGQVEWDKCSGIFPADRSGQGGGGTDISVSLLAVVVSFCGLALLVVSLFVFWKLCWPCWKSKLVAPNLSVLPQSISSAPTEVFETEEKKEVEENEKPAPKAIEPAIKISHTSPDIPAEVQTALKEHLIKHARVQRQTTEPTSSSRHNSFRRHLPRQMNVSSVDFSVGTEPILQRGETRTSIGRIKPELYKQKSVDSEGNRKDDVKTCGKLNFALQYDYENELLVVKIIKALDLPAKDFTGTSDPYVKIYLLPDRKKKFQTRVHRKTLNPLFDELFQFPVVYDQLSNRKLHFSIYDFDRFSRHDMIGEVILDNLFEVSDLSREATVWKDIHCATTESIDLGEIMFSLCYLPTAGRMTLTVIKCRNLKAMDITGSSDPYVKVSLMCEGRRLKKRKTTTKKNTLNPVYNEAIIFDIPPENVDQVSLCIAVMDYDRVGHNEVIGVCRTGLDAEGLGRDHWNEMLAYHRKPITHWHPLLELPGRATSFDSQGSCSSPRPPSTP [C13A]

# Variants of: B5
# Conditions: with syt10_mouse Syt10, Q9R0N4
row,effect of a mutation on the interaction,Variant
1,decreasing interaction,MSGVWGAGGPRAQAALAVLASLCRARPPPLGLDVETCRSFELQSPEQSPSAADSGTSVSLLAVVVIVCGVALVAVFLFLFWKLCWMPWRKKEASSPSSANPASETLQSPSSRGNMADKLKDPSALGFLEAAVKISHTSPDIPAEVQMSVKEHIMRHTKLQRQTTEPASSTRHTSFKRHLPRQMHVSSVDYGNELPPAAAEQPTSIGRIKPELYKQKSVDGDDAKSEAAKSCGKINFSLRYDYESETLIVRILKAFDLPAKDFCGSSDPYVKIYLLPDRKCKLQTRVHRKTLNPTFDENFHFPVPYEELADRKLHLSVFDFDRFSRHDMIGEVILDNLFEASDLSRETSIWKDIQYATSESVDLGEIMFSLCYLPTAGRLTLTVIKCRNLKAMDITGYSDPYVKVSLLCDGRRLKKKKTTIKKNTLNPIYNEAIIFDIPPENMDQVSLLISVMDYDRVGHNEIIGVCRVGINAEGLGRDHWNEMLAYPRKPIAHWHSLVEVKKSFKEGTPRL [C12A]

# Variants of: B6
# Conditions: with syt6_mouse Syt6, Q9R0N8
row,effect of a mutation on the interaction,Variant
1,decreasing interaction,MSFRKEDGVSSLAQKALHIITELCFAGQVEWDKCSGIFPADRSGQGGGGTDISVSLLAVVVSFCGLALLVVSLFVFWKLCWPCWKSKLVAPNLSVLPQSISSAPTEVFETEEKKEVEENEKPAPKAIEPAIKISHTSPDIPAEVQTALKEHLIKHARVQRQTTEPTSSSRHNSFRRHLPRQMNVSSVDFSVGTEPILQRGETRTSIGRIKPELYKQKSVDSEGNRKDDVKTCGKLNFALQYDYENELLVVKIIKALDLPAKDFTGTSDPYVKIYLLPDRKKKFQTRVHRKTLNPLFDELFQFPVVYDQLSNRKLHFSIYDFDRFSRHDMIGEVILDNLFEVSDLSREATVWKDIHCATTESIDLGEIMFSLCYLPTAGRMTLTVIKCRNLKAMDITGSSDPYVKVSLMCEGRRLKKRKTTTKKNTLNPVYNEAIIFDIPPENVDQVSLCIAVMDYDRVGHNEVIGVCRTGLDAEGLGRDHWNEMLAYHRKPITHWHPLLELPGRATSFDSQGSCSSPRPPSTP [C13A]
